Where “and” joins values, the source holds several entries; their conditions need not be identical. Equal values may be shown once.
Key:
[1] = biological target: pineapple-derived jacalin-related lectin AcmJRL (pineapple (Ananas comosus)); assay: dynamic light scattering
[2] = biological target: human angiotensin-converting-enzyme-2 (ACE2) receptor, recombinant (human) (UniProt Q9BYF1); assay: SPR
[3] = biological target: SARS-CoV-2 spike receptor-binding domain (RBD) (SARS-CoV-2) (UniProt P0DTC2); assay: SPR

For “pineapple-derived jacalin-related lectin AcmJRL (natural protein)”, the stoichiometry N [1] was 2, the Kd [2] was 22.1 µM and the kon [2] was 590 M⁻¹ s⁻¹. For the same substance, the Kd [3] was 12.9 µM and 35 µM and the kon [3] was 1490 M⁻¹ s⁻¹.
